Data taken from article PMC7921117, “Structural characterization of the microbial enzyme urocanate reductase mediating imidazole propionate production” (Nature Communications, 2021).

Biological target: the molecule itself
Assay: elution peak in chromatography during purification; purification of His-tagged UrdA′; the sentence follows the HisTrap HP imidazole gradient; one large asymmetrical peak

B1: two-domain urocanate reductase UrdA′ (clamp domain and FAD-binding domain) from Shewanella oneidensis MR-1 (domain or fragment, Shewanella oneidensis (strain MR-1), UniProt Q8CVD0 130-582, looked up)
chain: EYTYDVVIIGSGGAGFSAGLEAIAAGRSAVIIEKMPIIGGNSLISGAEMNVAGSWVQKNMGITDSKELFISDTLKGGDFKGDPEMVKTMVDNAVGAAEWLRDYVKVEFYPDQLFQFGGHSVKRALIPKGHTGAEVISKFSIKADEVGLPIHTNTKAEKLIQDQTGRIVGVEAAHNGKTITYHAKRGVVIATGGFSSNMEMRKKYNPELDERYGSTGHAGGTGDGIVMAEKIHAAAKNMGYIQSYPICSPTSGAIALIADSRFFGAVLINQKGERFVEELERRDVISHAILAQPGRYTYVLWNQDIENVAHTVEMHQGELKEFTKDGLMYKVDTLEEAAKVFNIPEDKLLSTIKDVNHYAATGKDEAFNHRSGLVDLSKGPYWILKATPSVHHTMGGLVVDTRTRVLDEQGKVIPGLFAAGEVTGLTHGTNRLGGNAYTDIIVYGRIAGQEAAK
notes: Synthetic gene in pET-24a(+); The main peak fraction, mostly monomeric, was used for further experiments; also called UrdA′wt; Two-domain WT; source: E. coli TUNER (DE3), purified (HisTrap HP; size-exclusion chromatography before crystallization); not shown: 6xHis, C-terminal, kept
B1: binds.
